One protein from paper PMC9246348 can be followed below.

For orientation: Km means the concentration of substrate that gives half-maximal velocity. As a reminder, the Vmax is the top rate of the reaction or transport when substrate is in excess. By kcat/Km is commonly meant the second-order rate constant that governs catalysis at low substrate concentration.

Substrate in series [1]: Nc1ccn([C@@H]2O[C@H](CO)[C@@H](O)[C@H]2O)c(=O)n1
Put plainly: ADP-Glo kinase assay. Type of series: biochemical, Homo sapiens. Conditions: 100 µM ATP, 50 mM Tris pH 7.5, 5 mM MgCl2, 2 mM DTT, room temperature.

Substrate in series [2]: O=c1ccn([C@@H]2O[C@H](CO)[C@@H](O)[C@H]2O)c(=O)[nH]1
Put plainly: ADP-Glo kinase assay. Type of series: biochemical, Homo sapiens. Conditions: 100 µM ATP, 50 mM Tris pH 7.5, 5 mM MgCl2, 2 mM DTT, room temperature.

B1: UCK2 (Homo sapiens) (protein)
chain: MAGDSEQTLQNHQQPNGGEPFLIGVSGGTASGKSSVCAKIVQLLGQNEVDYRQKQVVILSQDSFYRVLTSEQKAKALKGQFNFDHPDAFDNELILKTLKEITEGKTVQIPVYDFVSHSRKEETVTVYPADVVLFEGILAFYSQEVRDLFQMKLFVDTDADTRLSRRVLRDISERGRDLEQILSQYITFVKPAFEEFCLPTKKYADVIIPRGADNLVAINLIVQHIQDILNGGPSKRQTNGCLNGYTPSRKRQASESSSRPH
Take B1: in the series “ADP-Glo kinase assay [1]”, the Michaelis-Menten constant (Km) stood at 25.07 µM, the Vmax turned out to be 1.09 µmol/min/mg and the specificity constant (kcat/Km) was found to be 35000 M⁻¹ s⁻¹. Besides, in “ADP-Glo kinase assay [2]”, the Michaelis constant (Km) came out at 207.3 µM, the maximal velocity (Vmax) is 3.98 µmol/min/mg and the specificity constant (kcat/Km) was 15000 M⁻¹ s⁻¹.
